Data: publication doi:10.1101/2023.07.10.548257 (bioRxiv, 2024)
Numbering of substitutions follows the chain as printed. No end group written: not given here.

Assays:
[1] = molecular target: T1, full-length SHP2^WT (Homo sapiens, UniProt Q06124); assay: SHP2 activation assay using phosphopeptides (DiFMUP), SHP2 WT; type: biochemical; settings: activation of full-length SHP2 WT (0.05 nM) by phosphopeptide; DiFMUP substrate; 60 mM HEPES pH 7.2, 75 mM KCl, 75 mM NaCl, 1 mM EDTA, 0.05% Tween-20, 0.5 mM TCEP; fluorescence read every 25 s for 6 min; mean of N (column N)
T1 construct: Full-length SHP2 constructs were diluted in assay buffer; His6-TEV (N, cleaved yes); made in house; host or cells: E. coli BL21(DE3)
T1 sequence (Q06124 1-593): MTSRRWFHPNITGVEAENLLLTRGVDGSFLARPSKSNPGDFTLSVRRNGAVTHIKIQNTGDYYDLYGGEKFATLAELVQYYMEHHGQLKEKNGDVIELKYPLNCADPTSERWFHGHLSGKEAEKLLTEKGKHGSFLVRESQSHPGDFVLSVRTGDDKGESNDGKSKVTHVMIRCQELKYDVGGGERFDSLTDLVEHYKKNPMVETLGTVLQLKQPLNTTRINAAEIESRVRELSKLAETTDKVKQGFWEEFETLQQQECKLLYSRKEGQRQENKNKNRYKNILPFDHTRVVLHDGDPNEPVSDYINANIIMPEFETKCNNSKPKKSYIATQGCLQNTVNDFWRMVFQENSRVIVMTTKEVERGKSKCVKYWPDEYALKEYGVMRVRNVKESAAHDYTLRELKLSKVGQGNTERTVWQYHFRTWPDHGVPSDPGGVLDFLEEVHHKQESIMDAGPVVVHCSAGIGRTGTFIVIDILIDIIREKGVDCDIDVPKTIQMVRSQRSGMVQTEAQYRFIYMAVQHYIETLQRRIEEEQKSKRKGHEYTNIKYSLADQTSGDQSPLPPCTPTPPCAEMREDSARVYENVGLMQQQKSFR
Protocol: SHP2 activation assays using phosphopeptides
Full-length SHP2 constructs were diluted in assay buffer (60 mM HEPES pH 7.2, 75 mM KCl, 75 mM NaCl,1 mM EDTA, 0.05% Tween-20, with 0.5 mM TCEP freshly added) to a 2X concentration of 0.1 nM. Peptides were serially diluted in assay buffer, with the last point of the concentration series fully without peptide. 15 μL of peptide and 15 μL of 800 μM DiFMUP was added to a black 96-well half area plate. Right before starting the plate reader assay, 30 μL SHP2 was added to each well a Supplementary Information - page 4 of 18 […]
final concentration of 0.05nM. Kinetic measurements (Ex 358/Em […]) were taken on a BioTek Neo2 plate reader every 25 seconds for 6 minutes. […]
(§1) OD600 reached 0.5. 20 mL of cell suspension was induced at 25 °C using a final concentration of 0.4% arabinose until the OD600 ~ 1 (after approximately 4 hours). The cells were spun down at 4000 rpm for 15 minutes, and the pellet was resuspended in PBS so that the OD600 ~1.5. The cells were stored in the fridge and used within a week.
(§2) For each sample, 75 μL of Dynabeads™ FlowComp™ Flexi Kit were washed twice in 1 mL SH2 buffer (50 mM HEPES pH 7.5, 150 mM NaCl, 1 mM TCEP, and 0.2% BSA) on a magnetic rack.
(§3) The beads were then resuspended in 75 μL of SH2 buffer. SH2 domains were thawed quickly and 20 μM of protein was added to the beads. SH2 buffer was added up to 150 μL, and the suspension was incubated for 1 hour at 4 °C while rotating. After 1 hour, the suspension was placed on a magnetic rack and washed twice with 1 mL SH2 buffer.
(§4) Preparing the phosphorylated cells
(§5) 150 μL of prepared cells per sample were spun down for 4000 rpm for 5 minutes at 4 °C.
(§6) Kinase screen buffer was prepared (50 mM Tris, 10 mM magnesium chloride, 150 mM sodium chloride; add 2 mM sodium orthovanadate and 1 mM TCEP fresh) and the cells of each sample were resuspended in 100 μL kinase screen buffer. Kinases c-Src, c-Abl, AncSZ, Eph1B were added to a final concentration of 2.5 µM each, creatine phosphate was added to a final concentration of 5 mM, and phosphokinase was added to a final concentration of 50 µg/mL. The suspension was incubated at 37 °C for 5 minutes before ATP was added to a final concentration of 1 mM. This mixture was incubated at 37 °C for 3 hours. After 3 hours, EDTA was added to a final concentration of 25 mM to quench the reaction. The input library control sample was not phosphorylated. These cells were spun down at 4000 rpm for 15 minutes at 4 °C. The cells were then resuspended in 100 µL of SH2 buffer + 0.1% BSA. Phosphorylation of the cells was confirmed by labeling with the PY20-PerCP-eFluor 710 pan-phosphotyrosine antibody followed by analysis via flow cytometry.
(§7) Enriching for cells displaying high-affinity phosphopeptide ligands
(§8) 100 μL of phosphorylated cells were mixed with 75 µL SH2-beads for 1 hour at 4 °C while rotating. After 1 hour, samples were placed on a magnetic rack, supernatant was removed and 1 mL SH2 buffer was added to each sample. This was rotated for 30 minutes at 4 °C to wash the beads.
(§9) After this wash, the beads were placed on a magnetic rack, the supernatant was removed and 50 µL […]
(§10) Preparing sequencing samples & deep sequencing
(§11) All SH2-selected samples and the input library control were resuspended in 50 µL MilliQ water, vortexed, and boiled for 10 minutes at 100 °C. The boiled lysate was used as the DNA template in a PCR reaction using the TruSeq-eCPX-Fwd and TruSeq-eCPX-Rev primers. The mixture resulting from this PCR was used directly into a second PCR to append Illumina sequencing adaptors and Supplementary Information - page 5 of 18

[2] = molecular target: T2, full-length SHP2^T42A (Homo sapiens, UniProt Q06124, T42A); assay: SHP2 activation assay using phosphopeptides (DiFMUP), SHP2 T42A; type: biochemical; settings: activation of full-length SHP2 T42A (0.05 nM) by phosphopeptide; DiFMUP substrate; HEPES pH 7.2 assay buffer; mean of N (column N)
T2 construct: Full-length SHP2 constructs were diluted in assay buffer; His6-TEV (N, cleaved yes); made in house; host or cells: E. coli BL21(DE3)
T2 sequence (Q06124 1-593 T42A): T1 sequence (Q06124 1-593) with T42A

[3] = molecular target: SHP2 N-SH2 domain, wild type (N-SH2-Avi-biotin) (UniProt Q06124); assay: peptide display screen (pTyr-Var Library); settings: N = 2 independent library transformations and screens; parent: est. 1.3; read off a plot
[4] = molecular target: T3, SHP2 N-SH2^WT domain (Homo sapiens, UniProt Q06124); assay: SH2 specificity profiling by bacterial peptide display (Human pTyr and pTyr-Var Libraries), N-SH2 WT; type: binding; settings: for >3.2 --> N-WT-Ave: average enrichment score above cutoff of 3.2 (true binder); for N-WT-Ave (enrichment score): bacterial peptide display, enzymatically phosphorylated displayed peptides, SH2-coated beads, deep sequencing, frequency in enriched sample / input, average, Human pTyr Library N = 3, pTyr-Var Library N = 2
T3 construct: SHP2 SH2 domains were cloned into a His6-SUMO-SH2-Avi construct; His6-SUMO (N, cleaved yes); made in house; host or cells: E. coli C43(DE3), co-expressed with BirA
T3 sequence (Q06124 6-102 limits assumed): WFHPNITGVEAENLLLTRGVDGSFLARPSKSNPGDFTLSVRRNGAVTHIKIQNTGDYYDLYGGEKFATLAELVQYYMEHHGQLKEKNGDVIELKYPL
Protocol: (§12) Next, we characterized the sequence specificity of the SH2 mutants relative to their wild-type counterparts in a large-scale, unbiased screen. […] For each peptide in a library, an enrichment score is calculated from the deep sequencing data as the frequency of the peptide in the SH2-enriched sample divided by the frequency of the peptide in the unenriched input sample ([34]). For this study, we used two largely non-overlapping libraries, both encoding known human phosphosites. […] The Human pTyr Library consists of 1,916 sequences derived from known phosphorylation sites in the human proteome, along with another 617 control mutants ([35]). […]
(§13) SH2 specificity profiling using bacterial peptide display
(§14) Preparation of bacterial cells
as §1, with “Electrocompetent MC1061 cells were transformed with ~100 ng of the respective library. After 1 hour recovery in 1 mL LB, cells were further diluted into 250 mL LB + 0.1% chloramphenicol. 1.8 mL of overnight culture was used to inoculate 100 mL LB + 0.1% chloramphenicol, and grown until OD600 reached” for “OD600 reached”
as §2, §3, §4, §5, §6, §7, §8, §9, §10
as §11, with “18 […]” for “18”
(§15) unique 5’ and 3’ indices to each sample (D700 and D500 series primers). The resulting PCR mixtures […]

[5] = molecular target: T4, SHP2 C-SH2^WT domain (Homo sapiens, UniProt Q06124); assay: SH2 specificity profiling by bacterial peptide display (Human pTyr and pTyr-Var Libraries), C-SH2 WT; type: binding; settings: for >3.2 --> C-WT-Ave: average enrichment score above cutoff of 3.2 (true binder); for C-WT-Ave (enrichment score): bacterial peptide display, frequency in enriched sample / input, average, Human pTyr Library N = 3, pTyr-Var Library N = 2
T4 construct: SHP2 SH2 domains were cloned into a His6-SUMO-SH2-Avi construct; His6-SUMO (N, cleaved yes); made in house; host or cells: E. coli C43(DE3), co-expressed with BirA
T4 sequence (Q06124 112-216 limits assumed): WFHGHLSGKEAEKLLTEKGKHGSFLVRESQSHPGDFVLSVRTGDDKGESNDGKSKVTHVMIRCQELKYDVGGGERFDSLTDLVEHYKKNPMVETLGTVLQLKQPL
Protocol: as §12, §13, §14
as §1, with “Electrocompetent MC1061 cells were transformed with ~100 ng of the respective library. After 1 hour recovery in 1 mL LB, cells were further diluted into 250 mL LB + 0.1% chloramphenicol. 1.8 mL of overnight culture was used to inoculate 100 mL LB + 0.1% chloramphenicol, and grown until OD600 reached” for “OD600 reached”
as §2, §3, §4, §5, §6, §7, §8, §9, §10
as §11, with “18 […]” for “18”
as §15

[6] = molecular target: T5, SHP2 C-SH2^E139D domain (Homo sapiens, UniProt Q06124, E139D); assay: SH2 specificity profiling by bacterial peptide display (Human pTyr and pTyr-Var Libraries), C-SH2 E139D; type: binding; settings: for >3.2 --> C-E139D-Ave: average enrichment score above cutoff of 3.2 (true binder); for C-E139D-Ave (enrichment score): bacterial peptide display, frequency in enriched sample / input, average, Human pTyr Library N = 3, pTyr-Var Library N = 2
T5 construct: SHP2 SH2 domains were cloned into a His6-SUMO-SH2-Avi construct; His6-SUMO (N, cleaved yes); made in house; host or cells: E. coli C43(DE3), co-expressed with BirA
T5 sequence (Q06124 112-216 E139D limits assumed): T4 sequence (Q06124 112-216 limits assumed) with E28D
Protocol: as §12, §13, §14
as §1, with “Electrocompetent MC1061 cells were transformed with ~100 ng of the respective library. After 1 hour recovery in 1 mL LB, cells were further diluted into 250 mL LB + 0.1% chloramphenicol. 1.8 mL of overnight culture was used to inoculate 100 mL LB + 0.1% chloramphenicol, and grown until OD600 reached” for “OD600 reached”
as §2, §3, §4, §5, §6, §7, §8, §9, §10
as §11, with “18 […]” for “18”
as §15

Compound	enrichment (fselected / finput) [3]	>3.2 --> N-WT-Ave [4]	N-WT-Ave (enrichment score) [4]	>3.2 --> C-WT-Ave [5]	C-WT-Ave (enrichment score) [5]	>3.2 --> C-E139D-Ave [6]	C-E139D-Ave (enrichment score) [6]	EC50 [1]	EC50 [2]
CC[C@H](C)[C@H](NC(=O)[C@@H](NC(=O)[C@H](C)NC(=O)[C@H](Cc1ccc(OP(=O)(O)O)cc1)NC(=O)[C@@H](NC(=O)[C@@H]1CCCN1C(=O)[C@H](CCC(=O)O)NC(=O)[C@@H]1CCCN1C(=O)[C@H](CO)NC(=O)[C@H](C)NC(C)=O)[C@@H](C)CC)[C@@H](C)O)C(=O)N[C@@H](CC(=O)O)C(=O)N[C@@H](Cc1ccccc1)C(=O)N[C@@H](CC(=O)O)C(N)=O	–	–	–	–	–	–	–	2.82 µM	1.46 µM
CC(=O)NCC(=O)N[C@@H](CC(=O)O)C(=O)N[C@@H](CCCCN)C(=O)N[C@@H](CCC(N)=O)C(=O)N[C@H](C(=O)N[C@@H](CCC(=O)O)C(=O)N[C@@H](Cc1ccc(OP(=O)(O)O)cc1)C(=O)N[C@@H](CC(C)C)C(=O)N[C@@H](CC(=O)O)C(=O)N[C@@H](CC(C)C)C(=O)N[C@@H](CC(=O)O)C(=O)N[C@@H](CC(C)C)C(=O)N[C@@H](CC(=O)O)C(N)=O)C(C)C	–	–	–	–	–	–	–	26.2 µM	–
MKGDYHRYLAEFATG (also: phosphorylated, site not given here) [1433E_HUMAN_131]	–	FALSE (>3.2 -->)	0.8269	FALSE (>3.2 -->)	0.8786	FALSE (>3.2 -->)	0.911	–	–
SDRKGGSYTQAASSD (also: phosphorylated, site not given here) [1A01_HUMAN_344]	–	FALSE (>3.2 -->)	0.7728	FALSE (>3.2 -->)	0.7595	FALSE (>3.2 -->)	0.8092	–	–

Continued, in another order:

enrichment (fselected / finput) [3]	>3.2 --> N-WT-Ave [4]	N-WT-Ave (enrichment score) [4]	>3.2 --> C-WT-Ave [5]	C-WT-Ave (enrichment score) [5]	>3.2 --> C-E139D-Ave [6]	C-E139D-Ave (enrichment score) [6]	Compound	EC50 [1]	EC50 [2]
1.3	–	–	–	–	–	–	ALDH2 pTyr 502 peptide FGLQA-pY-TEVKT E504K	–	–
–	FALSE (>3.2 -->)	0.9356	FALSE (>3.2 -->)	0.8982	–	–	MKGDAARYLAEVATG (bacterially displayed) [1433G_HUMAN_133_YA]	–	–
–	FALSE (>3.2 -->)	0.7788	FALSE (>3.2 -->)	0.6613	FALSE (>3.2 -->)	0.7738	MKGDAHRYLAEFATG (bacterially displayed) [1433E_HUMAN_131_YA]	–	–
–	FALSE (>3.2 -->)	0.8572	FALSE (>3.2 -->)	0.777	FALSE (>3.2 -->)	0.8393	MKGDYYRYLAEVATG (also: phosphorylated, site not given here) [1433G_HUMAN_133]	–	–
